Here are results for one substance from paper PMC10994853.

This assay addresses SkpA (Fjoh_1689) (Flavobacterium johnsoniae (endogenous)). Put plainly: cryo-EM structure; Extended Translocon, peak I of Twin-strep–SprA complexes from a ΔgldL background (also seen at 4.3 Å from ΔgldM peak I); assembled in vivo, in LMNG.

A word on the stoichiometry N: it is a count of units in the complex or per binding partner.

In turn, SkpA (Fjoh_1689) (natural protein) yielded a stoichiometry N of 3.
